Assays:
[1] = target: NADPH-thioredoxin reductase C from Anabaena sp. PCC 7120 (Anabaena sp. PCC 7120 (endogenous in Anabaena cells)); test: SEC; soluble extracts (200 µg total protein) of untreated Anabaena cells (0 h) on Superdex 200 HR 10/30, 50 mM KH2PO4 pH 7.1, 150 mM NaCl, 0.5 ml/min; fractions read by Western blot
[2] = target: 2-Cys peroxiredoxin from Anabaena sp. PCC 7120 (Anabaena sp. PCC 7120 (endogenous in Anabaena cells)); test: non-reducing SDS-PAGE with Western blot; soluble extracts of Anabaena WT and ΔntrC cells treated with H2O2, methyl viologen or high light; dimer and monomer bands of 2-Cys Prx
[3] = target: 2-Cys peroxiredoxin from Anabaena sp. PCC 7120 (Anabaena sp. PCC 7120 (endogenous in Anabaena cells)); test: SEC; soluble extracts (200 µg total protein) of untreated Anabaena cells (0 h) on Superdex 200 HR 10/30, 50 mM KH2PO4 pH 7.1, 150 mM NaCl, 0.5 ml/min; fractions read by Western blot

Row | Substance | stoichiometry N [1] | stoichiometry N [2] | stoichiometry N [3]
1 | NADPH-thioredoxin reductase C from Anabaena sp. PCC 7120 (enzyme) | 2 | – | –
2 | 2-Cys peroxiredoxin from Anabaena sp. PCC 7120 (enzyme) | – | 2 | 2

Source: article PMC4988983
